Assay results as given in patent US20150329642A1 (Genmab, published 2015).

Legend:
cMetECDHis [1] = biological target: T1, cMetECDHis (human, UniProt P08581 25-932, limits assumed, biotinylated in the cross-block ELISA of Example 17); test: cross-block ELISA; competitor 005
T1 construct: Expressed in HEK-293F cells; also called soluble cMetECDHis; biotinylated cMetECDHis
Experimental: (§1) First, the optimal coating concentrations of the tested anti-c-Met antibodies and the optimal cMetECDHis concentration were determined. Therefore, ELISA wells were coated overnight at 4° C. with anti-c-Met HuMabs serially diluted in PBS (8 μg/mL in 2-fold dilutions). Next, the ELISA wells were washed with PBST (PBS supplemented with 0.05% Tween-20 [Sigma-Aldrich, Zwijndrecht, The Netherlands]) and blocked for one hour at room temperature (RT) with PBSTC (PBST supplemented 2% [v/v] chicken serum [Gibco, Paisley, Scotland]). Subsequently, the ELISA wells were washed with PBST and incubated for one hour at RT with biotinylated cMetECDHis serially diluted in PBSTC (1 μg/mL in 2-fold dilutions). Unbound biotinylated cMetECDHis was washed away with PBST, and bound biotinylated cMetECDHis was incubated for one hour at RT with 0.1 μg/mL Streptavidin-poly-HRP (Sanquin, Amsterdam, The Netherlands) diluted in PBST.
(§2) ELISA wells were coated with anti-c-Met antibody at a sub-optimal dose as described above. After blocking of the ELISA wells, they were incubated with the predetermined concentration of biotinylated cMetECDHis in the presence of an excess of anti-c-Met antibody. The reaction was developed as described above. Residual binding was expressed as a percentage relative to the binding observed in the absence of competitor antibody.

cMetECDHis [2] = biological target: T1, cMetECDHis; test: cross-block ELISA; competitor 006
Experimental: as §1, §2

cMetECDHis [3] = biological target: T1, cMetECDHis; test: cross-block ELISA; competitor 008
Experimental: as §1, §2

cMetECDHis [4] = biological target: T1, cMetECDHis; test: cross-block ELISA; competitor 022
Experimental: as §1, §2

cMetECDHis [5] = biological target: T1, cMetECDHis; test: cross-block ELISA; competitor 024
Experimental: as §1, §2

cMetECDHis [6] = biological target: T1, cMetECDHis; test: cross-block ELISA; competitor 035
Experimental: as §1, §2

cMetECDHis [7] = biological target: T1, cMetECDHis; test: cross-block ELISA; competitor 045
Experimental: as §1, §2

cMetECDHis [8] = biological target: T1, cMetECDHis; test: cross-block ELISA; competitor 062
Experimental: as §1, §2

cMetECDHis [9] = biological target: T1, cMetECDHis; test: cross-block ELISA; competitor 064
Experimental: as §1, §2

cMetECDHis [10] = biological target: T1, cMetECDHis; test: cross-block ELISA; competitor 068
Experimental: as §1, §2

cMetECDHis [11] = biological target: T1, cMetECDHis; test: cross-block ELISA; competitor 069
Experimental: as §1, §2

cMetECDHis [12] = biological target: T1, cMetECDHis; test: cross-block ELISA; competitor 098
Experimental: as §1, §2

cMetECDHis [13] = biological target: T1, cMetECDHis; test: cross-block ELISA; competitor 101
Experimental: as §1, §2

cMetECDHis [14] = biological target: T1, cMetECDHis; test: cross-block ELISA; competitor 181
Experimental: as §1, §2

cMetECDHis [15] = biological target: T1, cMetECDHis; test: cross-block ELISA; competitor 5D5
Experimental: as §1, §2

cMetECDHis [16] = biological target: T1, cMetECDHis; test: cross-block ELISA; competitor G11-HZ
Experimental: as §1, §2

cMetECDHis [17] = biological target: T1, cMetECDHis; test: BLI (Octet); antibody captured, cMetECDHis in solution
Summary of the method: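 Antibodies captured on Fc-specific anti-human IgG biosensors; HEK293-derived cMetECDHis at 10 μg/mL in diluted kinetics buffer bound for about 10 min, then dissociation in buffer alone. ka, kd and KD from 1:1 Langmuir fit.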

residual binding, % of no competitor (cMetECDHis [1]) | residual binding, % of no competitor (cMetECDHis [2]) | residual binding, % of no competitor (cMetECDHis [3]) | residual binding, % of no competitor (cMetECDHis [4]) | residual binding, % of no competitor (cMetECDHis [5]) | residual binding, % of no competitor (cMetECDHis [6]) | residual binding, % of no competitor (cMetECDHis [7]) | residual binding, % of no competitor (cMetECDHis [8]) | residual binding, % of no competitor (cMetECDHis [9]) | residual binding, % of no competitor (cMetECDHis [10]) | residual binding, % of no competitor (cMetECDHis [11]) | residual binding, % of no competitor (cMetECDHis [12]) | residual binding, % of no competitor (cMetECDHis [13]) | residual binding, % of no competitor (cMetECDHis [14]) | residual binding, % of no competitor (cMetECDHis [15]) | residual binding, % of no competitor (cMetECDHis [16]) | Kd (cMetECDHis [17]) | koff (cMetECDHis [17]) | kon (cMetECDHis [17]) | Binder
31.4% | 43.6% | 90.2% | 6.8% | 109% | 90.1% | 112% | 109% | 109% | 119% | 113% | 112% | 104% | 121% | 2.8% | 81.5% | 2.7 nM | 0.00125 s⁻¹ | 464000 M⁻¹ s⁻¹ | IgG1-1016-058 (antibody, V domains shown, also called IgG1-058; TH1016-058) VH: EVQLVESGGGLVKPGGSLKLSCAASGFTFSDYYMYWVRQTPEKRLEWVATISDDGSYTYYPDSVKGRFTISRDNAKNNLYLQMSSLKSEDTAMYYCAREGLYYYGSGSYYNQDYWGQGTLVTVSS VL: AIQLTQSPSSLSASVGDRVTITCRASQGLSSALAWYRQKPGKAPKLLIYDASSLESGVPSRFSGSGSGTDFTLTISSLQPEDFATYYCQQFTSYPQITFGQGTRLEIK
91.5% | 89.7% | 94% | 90.7% | 40.5% | 96.7% | 94.7% | 36.9% | 37.4% | 45.9% | 9.5% | 9.7% | 3.7% | 41.9% | 97.2% | 98.3% | 1.27 nM | 0.000214 s⁻¹ | 169000 M⁻¹ s⁻¹ | anti-c-Met HuMab 101 (IgG1) (antibody, V domains shown) VH: QVQLVQSGGEVKKPGASVKVSCKASGYTFTRHGITWVRQAPGQGLEWMGWISADNGNTNYAQKFQDRVTMTTDTSTSTAYMELRSLRSDDTAVYFCARVFRYFDWLLPYFDYWGQGTLVTVST VL: not shown
